± gives the standard deviation.
Assay: protein stability index of a GFP-peptide fusion (GPS, HEK-293T) (PSI 1-6); higher = more stable
Details: c terminus: a fixed tail appended
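Also: 24-mer peptide tiles fused after GFP, lentivirally expressed, FACS-sorted into six equal bins by GFP/DsRed ratio, decoded by Illumina sequencing, PSI is the read-weighted mean bin number.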

Sequence | protein stability index (treatment: DMSO) | protein stability index (treatment: MLN4924 1 uM, 8 h)
PAAPFDKKCGRENWTVAFAPDGSY [WSB1] | 2.63 ± 0.33 | 2.86 ± 0.13
TRHYRPPEVILELGWAQPCDVWSI [CLK3] | 2.69 ± 0.65 | 2.47 ± 0.52
IYTEFPDETLRSGELLNMIVAVID [INTS3] | 2.14 ± 0.29 | 2.47 ± 0.099
QELASLLRTYLARLPWAGQLTKEL [PBXIP1] | 2.95 ± 0.59 | 2.72 ± 0.7
AFMNQEITKAFHVRKANRIKECLS [RHOBTB1] | 2.41 ± 0.18 | 2.53 ± 0.33
GSNPSSSNSSQDSLHKGAKRKGIK [PPFIA4] | 5.14 ± 0.69 | 5.53 ± 0.35
SGFVGSGGWFCEGSFNGSEKETMQ [KRT36] | 3.87 ± 0.36 | 3.65 ± 0.19
EKNIILEEKIQVLQQQNEDLKARI [MTUS2] | 4.03 ± 0.24 | 4.04 ± 0.23
RLQELCHGWLRPEMRTKEQILELL [ZNF263] | 2.58 ± 0.11 | 2.9 ± 0.12
RLPFLSSSNLSLDVLRGNDETIGF [POMP] | 3.02 ± 0.42 | 3 ± 0.27
DRVLNYTSWSQHCPWEPQKQPPWE [SPAG8] | 2.87 ± 0.2 | 2.96 ± 0.15
CLSFQPECSMKLTPLVLEVFGNEI [VDR] | 2.27 ± 0.38 | 2.52 ± 0.19
LMYPSYTFSGDVQLAQDDIDGIQA [MMP1] | 4.1 ± 0.15 | 4.25 ± 0.25
AFLELPHGSGGSGYPAAPPAVPFA [TBX6] | 2.55 ± 0.15 | 2.69 ± 0.39
RNGSERVVTSAREHIYDLRSLENY [CLINT1] | 3.5 ± 0.16 | 3.81 ± 0.25
NIRQKVKELVEFAQDDDRLREERK [CLINT1] | 4.55 ± 0.17 | 5.01 ± 0.19
AWISKIKGSPDVSASSDEPYARIQ [SMIM2] | 3.11 ± 0.38 | 3.44 ± 0.17
RITAAEALKHPWISHRSTVASCMH [CAMK2A] | 2.54 ± 0.19 | 2.89 ± 0.19

Sequence | protein stability index (treatment: DMSO) | protein stability index (treatment: MLN4924 1 uM, 8 h)
AKPEALSSPKFREEAAFPGRRVNA [ELOA2] | 4.48 ± 0.25 | 4.59 ± 0.17
GGHTREARIQTLEPDNWMKEVMLF [RSAD1] | 2.51 ± 0.25 | 2.34 ± 0.34
LQGVPERLLGTAGTEEKKKLIRDF [VTI1B] | 4.25 ± 0.44 | 4.63 ± 0.2
VRDQGPSIPLTPGDTPIRKKEELL [FBF1] | 5.26 ± 0.21 | 5.33 ± 0.12
ASSRSQQSSKRSSRSVEDDKEGHL [CLK3] | 5.44 ± 0.079 | 5.52 ± 0.29
SSMFSGSWKESSMNIIELEIPDQN [GMCL1] | 3.53 ± 0.29 | 3.67 ± 0.5
RCRPRSLIDYKSYMDTKLLVARFL [FAM189A2] | 2.42 ± 0.11 | 2.3 ± 0.3
EGYVWRGSQLEDQALRGLEGYTWR [ZSWIM9] | 2.7 ± 0.22 | 2.67 ± 0.18
IVKQQDPLVYKAIQQGINAVNQEA [ACSBG2] | 3.75 ± 0.11 | 3.82 ± 0.12
QHYFYDYDCGEDFYRSTAPSEDIW [MYCL] | 2.63 ± 0.49 | 2.59 ± 0.33
KKRLQELALALKKCKPSLPAEAEG [TMEM120A] | 3.62 ± 0.48 | 3.34 ± 0.36
EPVLTQTSEQAPSSAPRDVQARML [PTPRD] | 5.13 ± 0.26 | 5.31 ± 0.26
YKDFLWFFSKRFKSAAMLAVFAVS [SOAT1] | 2.25 ± 0.49 | 2.4 ± 0.53
YGEFYKSLTNDWEDHLAVKHFSVE [HSP90AB1] | 2.46 ± 0.31 | 2.87 ± 0.28
HFQDNLHSVNRDLNELERLSNLVG [MED27] | 3.47 ± 0.19 | 3.52 ± 0.36
TFQSSVLRVGIPENAPIGTLLLRL [PCDHGC5] | 2.23 ± 0.3 | 2.16 ± 0.12
DRNTKRDVTLEASRESSKPRAVLK [PPP2R2C] | 4.62 ± 0.23 | 4.79 ± 0.17
AERYKLERLAEAEKSQLIMQAEAE [FLOT1] | 5.29 ± 0.25 | 5 ± 0.28
